Assay results: patent US20120045393A1 (priority 2009, published 2012)
Non-standard residues stand in square brackets, D forms with d. Residues, ends and D or L forms follow the SMILES beside them. Primed or numbered codes have the meaning given here. *: point of attachment. DO3A10CM(3) = metal chelator group attached at the N-terminus (X in table rows); DO3A10CM″ = chelating group at the N-terminus (X in the sequence tables); DOTA = O=C(O)CN1CCN(CC(=O)O)CCN(CC(=O)*)CCN(CC(=O)O)CC1; Bpa = N[C@@H](Cc1ccc(C(=O)c2ccccc2)cc1)C(=O)O; Ala(4-thiazolyl) = N[C@@H](Cc1cscn1)C(=O)O; d2Nal = N[C@H](Cc1ccc2ccccc2c1)C(=O)O; d3Pal = N[C@H](Cc1cccnc1)C(=O)O; DO3A10CM = not defined here; Nicotinoyl = O=C(c1cccnc1)*; Bugly = not defined here; Etgly = not defined here; Hegly = not defined here; Ipgly = not defined here; Mpgly = not defined here; Prgly = not defined here; Btd = not defined here; azaGly = NNC(=O)O; Sar = CNCC(=O)O

System: LHRH binding sites on human ovarian cancer cells (EFO-27);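 further: Cell-associated radioactivity on confluent EFO-27 monolayers in 96-well plates, measured by microplate scintillation counting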
Test: not given
Conditions: not given

Molecule	EC50
CNCC(=O)N[C@@H](CCCNC(=N)N)C(=O)N[C@@H](Cc1c[nH]c2ccccc12)C(=O)N[C@@H](CO)C(=O)N[C@@H](Cc1c[nH]cn1)C(=O)N[C@H](CCCNC(=N)N)C(=O)N[C@@H](Cc1c[nH]c2ccccc12)C(=O)N[C@@H](Cc1ccc(C(=O)c2ccccc2)cc1)C(=O)N1CCC[C@H]1C(=O)NCCCN(C)CCCNC(=O)CN1CCN(CC(=O)O)CCN(CC(=O)O)CCN(CC(=O)O)CC1 [compound 3045]	210 ± 80 nM
CN(CC(=O)N[C@@H](Cc1c[nH]cn1)C(=O)N[C@@H](Cc1c[nH]c2ccccc12)C(=O)N[C@@H](CO)C(=O)N[C@@H](Cc1cscn1)C(=O)N[C@H](CCCNC(=N)N)C(=O)N[C@@H](Cc1c[nH]c2ccccc12)C(=O)N[C@@H](Cc1ccc(C(=O)c2ccccc2)cc1)C(=O)N1CCC[C@H]1C(=O)NNC(N)=O)C(=O)CN1CCN(CC(=O)O)CCN(CC(=O)O)CCN(CC(=O)O)CC1 [BRU-2769] ({DOTA}-[Sar]HWS[Ala(4-thiazolyl)][dR]W[Bpa]P[azaGly]-NH2; C-terminus assumed)	7340 nM
CNCC(=O)N[C@@H](CCCNC(=N)N)C(=O)N[C@@H](Cc1c[nH]c2ccccc12)C(=O)N[C@@H](CO)C(=O)N[C@@H](Cc1c[nH]cn1)C(=O)N[C@H](CCCNC(=N)N)C(=O)N[C@@H](Cc1c[nH]c2ccccc12)C(=O)N[C@@H](Cc1ccc(C(=O)c2ccccc2)cc1)C(=O)N1CCC[C@H]1C(=O)NCCCCNC(=O)CN1CCN(CC(=O)O)CCN(CC(=O)O)CCN(CC(=O)O)CC1 [compound 3041]	360 ± 20 nM
CNCC(=O)N[C@@H](CCCNC(=N)N)C(=O)N[C@@H](Cc1c[nH]c2ccccc12)C(=O)N[C@@H](CO)C(=O)N[C@@H](Cc1c[nH]cn1)C(=O)N[C@H](CCCNC(=N)N)C(=O)N[C@@H](Cc1c[nH]c2ccccc12)C(=O)N[C@@H](Cc1ccc(C(=O)c2ccccc2)cc1)C(=O)N1CCC[C@H]1C(=O)NCC1CCCCN1C(=O)CN1CCN(CC(=O)O)CCN(CC(=O)O)CCN(CC(=O)O)CC1 (stereo partly drawn) [compound 3102]	200 ± 70 nM
N=C(N)NCCC[C@H](NC(=O)[C@@H](Cc1ccc2ccccc2c1)NC(=O)CN1CCN(CC(=O)O)CCN(CC(=O)O)CCN(CC(=O)O)CC1)C(=O)N[C@@H](Cc1c[nH]c2ccccc12)C(=O)N[C@@H](CO)C(=O)N[C@@H](Cc1c[nH]cn1)C(=O)N[C@H](CCCNC(=N)N)C(=O)N[C@@H](Cc1c[nH]c2ccccc12)C(=O)N[C@@H](Cc1ccc(C(=O)c2ccccc2)cc1)C(=O)O [BRU-3064, DO3A10CM-Dna12-Arg-Trp-Ser-His-Darg-Trp-Bpa4-OH] ({DOTA}-[d2Nal]RWSH[dR]W[Bpa]-OH)	720 nM

Same assay, conditions: Table 5: modifications of amino acids at positions 1 and 2; in vitro binding on EFO-27 cells

Molecule	EC50
N=C(N)NCCC[C@@H](NC(=O)[C@H](Cc1c[nH]cn1)NC(=O)[C@H](CO)NC(=O)[C@H](Cc1c[nH]c2ccccc12)NC(=O)[C@H](Cc1c[nH]cn1)NC(=O)[C@@H](Cc1ccccc1)NC(=O)CN1CCN(CC(=O)O)CCN(CC(=O)O)CCN(CC(=O)O)CC1)C(=O)N[C@@H](Cc1c[nH]c2ccccc12)C(=O)N[C@@H](Cc1ccc(C(=O)c2ccccc2)cc1)C(=O)N1CCC[C@H]1C(=O)NNC(N)=O [BRU-2894]	2000 nM
N=C(N)NCCC[C@@H](NC(=O)[C@H](Cc1c[nH]cn1)NC(=O)[C@H](CO)NC(=O)[C@H](Cc1c[nH]c2ccccc12)NC(=O)[C@H](Cc1c[nH]cn1)NC(=O)[C@H](Cc1ccccc1)NC(=O)CN1CCN(CC(=O)O)CCN(CC(=O)O)CCN(CC(=O)O)CC1)C(=O)N[C@@H](Cc1c[nH]c2ccccc12)C(=O)N[C@@H](Cc1ccc(C(=O)c2ccccc2)cc1)C(=O)N1CCC[C@H]1C(=O)NNC(N)=O [BRU-2735]	1140 nM
N=C(N)NCCC[C@@H](NC(=O)[C@H](Cc1c[nH]cn1)NC(=O)[C@H](CO)NC(=O)[C@H](Cc1c[nH]c2ccccc12)NC(=O)[C@H](Cc1c[nH]cn1)NC(=O)[C@@H]1CCCN1C(=O)CNC(=O)CN1CCN(CC(=O)O)CCN(CC(=O)O)CCN(CC(=O)O)CC1)C(=O)N[C@@H](Cc1c[nH]c2ccccc12)C(=O)N[C@@H](Cc1ccc(C(=O)c2ccccc2)cc1)C(=O)N1CCC[C@H]1C(=O)NNC(N)=O [BRU-2667] ({DOTA}-GPHWSH[dR]W[Bpa]P[azaGly]-NH2)	7290 nM

Same assay, conditions: Table 11: modification of amino acid at position 5; EFO-27 cells

Molecule	EC50
CC(C)C[C@H](NC(=O)[C@@H](CCCNC(=N)N)NC(=O)[C@H](Cc1ccc(O)cc1)NC(=O)[C@H](CO)NC(=O)[C@H](Cc1c[nH]c2ccccc12)NC(=O)[C@H](Cc1c[nH]cn1)NC(=O)CN(C)C(=O)CN1CCN(CC(=O)O)CCN(CC(=O)O)CCN(CC(=O)O)CC1)C(=O)N[C@@H](Cc1ccc(C(=O)c2ccccc2)cc1)C(=O)N1CCC[C@H]1C(=O)NNC(N)=O [compound 2670] ({DOTA}-[Sar]HWSY[dR]L[Bpa]P[azaGly]-NH2)	8840 nM

Target: LHRH binding sites on EFO-27 human ovarian cancer cells (human)
Test: competition with [125I-Tyr8]BRU-2477 on EFO-27 cells
Conditions: not given

Molecule	EC50	times lower binding than BRU-2443	times lesser binding efficacy than BRU-2443
XRWSHXWXP (DO3A10CM on N-terminus; AA1 Dnal2; AA6 Darg; AA8 Bpa4; AA10 Aeh2 (aminoethanol; printed Ach2 in paragraph 138)) [BRU-2970]	510 nM	–	–
DO3A10CM-[d2Nal]RWSH[dR]W[Bpa]PGF-NH2 (reading uncertain) [BRU-2980]	970 nM	–	–
XRWSHXWXP (DO3A10CM on N-terminus; AA1 Dnal2; AA6 Darg; AA8 Bpa4; AA10 Ae (aminoethane)) [BRU-2981]	970 nM	–	–
XRWSHXWXP (DO3A10CM on N-terminus; AA1 Dnal2; AA6 Darg; AA8 Bpa4; AA10 Aprp1h3) [BRU-2982]	1130 nM	–	–
XRWSHXWXPG (DO3A10CM on N-terminus; AA1 Dnal2; AA6 Darg; AA8 Bpa4; C-terminal Gly-Aprp1h3) [BRU-2987]	2300 nM	–	–
XRWSHXWXPG (DO3A10CM on N-terminus; AA1 Dnal2; AA6 Darg; AA8 Bpa4; C-terminal Gly-Az23(py2)2po-Ap) [BRU-2989]	1130 nM	–	–
XRWSHXWXPGX (DO3A10CM on N-terminus; AA1 Dnal2; AA6 Darg; AA8 Bpa4; AA10 Gly-NH2 (amide)) [BRU-3005]	660 nM	–	–
XRWSHXWXP (not fully specified; DO3A10CM on N-terminus; AA1 Dnal2 (Table 6; Sar in paragraph 138); AA6 Darg; AA8 Bpa4; AA10 Az23po-Dabt14) [BRU-3019]	900 nM	–	–
XRWSHXWXP (not fully specified; DO3A10CM on N-terminus; AA1 Dnal2 (Table 6; Sar in paragraph 138); AA6 Darg; AA8 Bpa4; AA10 Az23po-Da15o3pt) [BRU-3022]	710 nM	–	–
XHWSHXWXPX (DO3A10CM on N-terminus; AA1 Sar; AA6 Darg; AA8 Bip; AA10 azaGly-NH2) [BRU-2625]	2140 nM	–	–
XHWSHXWYPX (HELM PEPTIDE1{[Glp].H.W.S.H.[dK].W.Y.P.[O=C(NN[*:1])[*:2]].[am]}$$$$V2.0; SMILES NCCCC[C@@H](NC(=O)[C@H](Cc1c[nH]cn1)NC(=O)[C@H](CO)NC(=O)[C@H](Cc1c[nH]c2ccccc12)NC(=O)[C@H](Cc1c[nH]cn1)NC(=O)[C@@H]1CCC(=O)N1)C(=O)N[C@@H](Cc1c[nH]c2ccccc12)C(=O)N[C@@H](Cc1ccc(O)cc1)C(=O)N1CCC[C@H]1C(=O)NNC(N)=O) [BRU-2437]	8540 nM	–	–
{DO3A10CM(3)}-[Sar]HWSH[dK](Nicotinoyl)W[Bpa]P[azaGly]-NH2 [BRU-2671]	7200 nM	–	–
{DO3A10CM(3)}-[Sar]HWSH[dA]W[Bpa]P[azaGly]-NH2 [BRU-2672]	14000 nM	–	–
{DO3A10CM(3)}-[Sar]HWSH[d3Pal]W[Bpa]P[azaGly]-NH2 [BRU-2673]	12300 nM	–	–
{DO3A10CM(3)}-[Sar]HWSH[dK](Nicotinoyl)WYP[azaGly]-NH2 [BRU-2674]	22600 nM	–	–
XHWSHXWXPX (DO3A10CM on N-terminus; AA1 Sar; AA6 Dcit; AA8 Bpa4; AA10 azaGly-NH2) [BRU-2729]	14200 nM	15 times	–
XHWSHXWXPX (DO3A10CM on N-terminus; AA1 Sar; AA6 Darg; AA8 Tbufe4; AA10 azaGly-NH2) [BRU-2634]	980 nM	–	–
DO3A10CM-[Sar]HWSH[dW]W[Bpa]P[azaGly]-NH2 (reading uncertain) [BRU-2731]	1360 nM	–	–
{DO3A10CM″}-[Sar]HWSH[dS]W[Bpa]P[azaGly]-NH2 [BRU-2761]	13600 nM	–	–
XHWSHXWXPX (DO3A10CM on N-terminus; AA1 Sar; AA6 Dharg; AA8 Bpa4; AA10 azaGly-NH2) [BRU-2893]	2600 nM	2.7 times	–
DO3A10CM-[Sar]HWSH[Btd]W[Bpa]P[azaGly]-NH2 (reading uncertain) [BRU-3000]	4230 nM	–	4.5 times
{DO3A10CM″}-G[Mephe]HWSHRW[Bpa]P[azaGly]-NH2 (not fully specified (residue 7)) [BRU-2755]	1290 nM	–	–
DO3A10CM-G[Etgly]HWSH[dR]W[Bpa]P[azaGly]-NH2 (reading uncertain) [BRU-2789]	5120 nM	–	–
DO3A10CM-G[Ipgly]HWSH[dR]W[Bpa]P[azaGly]-NH2 (reading uncertain) [BRU-2790]	3300 nM	–	–
DO3A10CM-G[Bugly]HWSH[dR]W[Bpa]P[azaGly]-NH2 (reading uncertain) [BRU-2791]	4030 nM	–	–
XHWSHXWXPX (DO3A10CM on N-terminus; AA1 Sar; AA6 Darg; AA8 Lys(isp); AA10 azaGly-NH2) [BRU-2675]	12300 nM	–	–
DO3A10CM-G[Mpgly]HWSH[dR]W[Bpa]P[azaGly]-NH2 (reading uncertain) [BRU-2793]	1340 nM	–	–
DO3A10CM-G[Prgly]HWSH[dR]W[Bpa]P[azaGly]-NH2 (reading uncertain) [BRU-2794]	1300 nM	–	–
DO3A10CM-G[Chgly]HWSHRW[Bpa]P[azaGly]-NH2 (reading uncertain; also: AA6 Darg prints R) [BRU-2872]	2900 nM	–	–
DO3A10CM-G[Hegly]HWSHRW[Bpa]P[azaGly]-NH2 (reading uncertain; also: AA6 Darg prints R) [BRU-2873]	1330 nM	–	–
